# Data: the DeepSol protein solubility set
# Test: soluble on expression in E. coli; label from the status in PepcDB or PDB records
row,Sequence,soluble on expression in E. coli
1,MGSDKIHHHHHHAKTTTQHGNALAAYNVKRYKTVKNRNLFVKRYAFQQSYTNIFQTSPTQISSTKGKAVTFKSNVFLPVTYQRSADWGNPQSEVLTPNGNTLYELITTSSQSTTGRIVRYNLGALRHFGITSTHMDALRRATYDHSVGKLTATDKAILKNVTVGPLFNTGHGQSLARNPKNGQLWFIGKPGAVKSNVQQVSTKTLKPSTKVNFTLKNTVPMGSNLTFDKHGKAYFFTYSNGGWAPKGAVKIYQGTISTKSVHFHLVMQGLRYAPGTKPQSMAYNAKRNRLYFVSDSSLASIPVSKLGKLKASQVEGTNLNGHREFEGLQFTSNGSGYLLVNKGAELMQTTHATF,not soluble
2,MTRAILFDLDGTLVDTRAASWQLFSETNLAFALGIDSREAFFRAFEGNFFESLAKLCPDPQRAAAVKAHFMELLRTRYHPALIPGMVDVVRALAPHSTLAVISTNGIEAIRRILVGADLANCFSHVFSGDVEPRKAVSIRRFLGDHRYAVHRACSPAYHDGEASHASLQAQDVVLVTDTVGDVREAREAGIRAIGVTWGMHSERQLLDAGAERVALWPQELVAWLRDADAPATSCGCSSGSADSCALPPAPAPAVRAAAAPPTGDPVREVARHRRERQLHTRLQAAAATAPAAPGASMASAASGPSARTELMSSLQRILREGDH,not soluble
3,MALKKAMLLIKNGKILTMTGVNYDSGSVLIDNGKIIKVGENIDVDESCEIIDADGFWVMPGIIEAHCHVGIQEEKRGFEGNDCNEMTNPVTPYLRALDGINPMDSAFYTALTAGITGIMVGPGSANVVGGQWMFLKTYGRAIDKMVVLQPSAMKIAFGENPKANYDKKNMMPSTRIAIAAMLREELFEAQQYYEKRKNAEKSGDSFNKEFRKECWVPVFDKKIPLKAHVHRADDILTAIRIAKEFNLNLTLDHCTEGHLVAKEIKESGFPAIVGPTLTSRNKIETQYADFKTAGILHNEGVKVAITTNHPVTRIQDLLICAGLAAKEGLGIEEGLKAITINPAEICNVANRVGSIEVNKDADIAIFDGNPMETFTKTMYTIINGEIVYSLKDKNYEGHHHHHH,soluble
4,MAHHHHHHMLYLKEIELGNYYICNLDDYPREYCVVDYDPNKVIKFLCPIVHNEGEEMKTYDSSYCFRYKGIKDRLIISNNEEQIYTTLPGIILENQILYDRYNLGIYLMPLKLEEDMSIVCVCDTKKEYKGITPYIKINIKKSNNLLGADSADQHIKGCDFGNNQGEHQFLTNSQSYEENLVCEIHANPGDIVGINCINYNEGDLQNYEVKLEPSNCFSTVSFSLYTLSFVKMNINNIFPDARYYPESSAFPKDPNFKKFSTTSYLWIPAHVPEDFLFFCSCRYAQGEGVAIYHVGSSAAAVEAV,not soluble
5,MTELLVTPKSLSHMETLIDLGADAFVIGEQKFGLRLPGEFNRQQMTEAVALAHKNDKKVYAAVNGLFHNYHLDAVEDYINFLHEIRVDRIIFGDPAVVMYVKAQENPIPLHWNAETLVTNHFQCNYWGKRGASRAVLARELNLDEIINIKENSNVEIEVQVQGMTCMFQSKRMLLGNYYTFQDRQMKIERRNDEQSLLLYDEERQNNYPVYEDYNGTHIMSPNDICLIEELAPFFEAGIDSFKIDGILQTEEYINVVTEQYRQAIDLYNEDPEIYEDEKFMLMDPIEEIQPDHRPFDEGFLYKQTVY,not soluble
6,AKDDKVTVLSIERGNKLVYLEKLGLRGDQFYYKIERIRESNGVVYIYHTSYIPEQYINANYPNLEYYSSIYNRFKLDYHIHMNDEHFEEINEIVFPTPEHAASVLGVDEQFPTVLQTKITKLESTGQVLEYSETYKRSDYYK,soluble
7,MSMPATLTKTTKLATSLIDEYALLGWRAMLTEVNLSPKPGLVDRINCGAHKDMALEDFHRSALAIQGWLPRFIEFGACSAEMAPEAVLHGLRPIGMACEGDMFRATAGVNTHKGSIFSLGLLCAAIGRLLQLNQLLTPTTVCSTAASFCRGLTDRELRTNNSQLTAGQRLYQQLGLTGARGEAEAGYPLVINHALPHYLTLLDQGLDPELALLDTLLLLMAINGDTNVASRGGEGGLRWLQREAQTLLQKGGIRTPADLDYLRQFDRECIERNLSPGGSADLLILTWFLAQI,soluble
8,TTGNEPPVTQIVDKHRIALALGGGAARGWAHIGVLRALDEAGVKIGMIAGTSIGALVGGCYLAGKLDELEEFARSLTMRRIAGLLDLTIGGGGLFGGMRLTKRMQEHLEGLRVENLEHPFIAVATELRTGHEVWIHQGDLVTALRSSYALPGIFEPVQCNGRTLIDGALVNPVPVSVCRAYEQALVVAVNLNYDLFGRSA,not soluble
9,MAHHHHHHMVHKKQAWAKRVKKERFKKKFLTRMQATRLLQMESVQFRRLCILKGIYPRALNRSKQKQSGNEKQYYLAREIKWLVRDQIAEKMMAYRAWEKKVKRAEAMGRSEDLKVLQTSRVKPRHSLVATIKERYPYFIDAIRDVDDAMSMIHLYAFLSPEIKSDTTIEIHHSLTSGLSERAKEVCERWDRYVARARVLTKGFISIKGYYYEAIVKGERVRWLCPHEYAHRFPPGIQQYVMLSFLEFYLEMMKFVLFKLESDLARDEADRLAAEDEEGVTRANAEDFANGAALAVLDVGANQAQAKAVKEAESKRSLMEEELHKVRELFRGLTFFISREVPAKHFALVINACGGRVATDYVPSNITHVVVDRPALPPGMKKHDQLEYVQPQYIFDCLNARLVLPVTGYRIGEELPPHVSPFSVSITNSAEDNAAVVQVKKDHPRIVGYVPARVHEIRKLINPSYSAVDPEGKVAHLEDEYSDEESHVAVPEMDMEDDVSLSGDELAEARRKPAWQEEEVTEEVQRPKLSAFKVKKQREMNLMNAPTNEVVARRRQALRKAQEKSRQTETSEARLQRKMSEVKRQEAATRKMQLQVARKKAARFYKMVSGVVQGTAKKVATLEAKAKHIAEGKLRKTEDGKGLVNKRLEARRQRAEAKGKKLKERKAGNPYKKLPKWVQ,not soluble
10,MNEDNSPSSNEGKKEKAEGPSRKSFFERLGQLFQGEPKDRQELVDVIRDSEVNDLIDHDTRDMLEGVMEISEMRVRDIMIPRSQMVTVERTDDLDTLIALITDAQHSRYPVISEDKDHVEGILLAKDLLKYLGSGSNPFDIEEVIRPAVVVPESKRVDRLLKEFREERYHMAIVVDEFGGVSGLVTIEDILEEIVGDIEDEFDESEETDIRKLSKHTFAVRALTTIEEFNETFGTNFSDEEVDTVGGMVMTAFGHLPSRGELVEIEGYNFKVTAADNRRVIQLQVTIPDEETLVEATQE,not soluble
11,RRAYGKNSKWVLINYNTGQPYEQTKVTPDGLIDYDAVLAANAAASNGSEAIFALGSNSHKWFGLLSSFKKKLNSSLTLTAGYDGRYYRGDHYDKITDLLGGSYYIEDPKTKLAYHAEGQQLKVGDIVNRDYTGEIMWHGLFAQMEHSSEWIDAFVSGSINYELYRNHNYGGSKSTGYLPGVSPWKSFLPWSGKAGLSYKFAQGHNVFANGGFFTRAPLFGNIYAAGAIIPNDKANMEKVLTGEVGYGFTNHKNFEFNINGYYTKWMDRVTSKRIGNEYVYLNGVDAVHCGVEAEVSYRPIRQIDLRGMFSLGDWTWQNNVSYTSYDEAGNETGQDITYIKGLHVGDAAQMTAAVSADIELFKGFHVIGKYNFLGKNYAGFNPATRNAQQYEADGKEIVESWKLPDVGLFDLSASYNFKLGSLSTTFYFNMDNVADKRYVSDADDNIIGKKHDEASALVWYGFGRTWSTGIRVNF,not soluble
12,WKTTLKLTLDNVVKLEKLKPLVEDFYREFEFAELQINMEVFNGSWEAIAQGRADIVVGATSAVPVGGDFEVKDMGVLDWAFVMSPAHPCVRQQVLTEEFVSQFPAICLDDTSNVLPKRHTGHYAKQRRLLLPNWYSAIECLKNGVGVGYMPRHIAMPLIHEGVLVEKLLQDDKPLSRCCLVWRKDDDHKLIQWMVDYLGSPNQLHQDWLQC,soluble
13,MASLKVPSNVPLPEDDAEQLHKAFSGWGTNEKLIISILAHRNAAQRSLIRSVYAATYNEDLLKALDKELSSDFERAVMLWTLDPPERDAYLAKESTKMFTKNNWVLVEIACTRPALELIKVKQAYQARYKKSIEEDVAQHTSGDLRKLLLPLVSTFRYEGDDVNMMLARSEAKILHEKVSEKSYSDDDFIRILTTRSKAQLGATLNHYNNEYGNAINKNLKEESDDNDYMKLLRAVITCLTYPEKHFEKVLRLSINKMGTDEWGLTRVVTTRTEVDMERIKEEYQRRNSIPLDRAIAKDTSGDYEDMLVALLGHGDA,soluble
14,MSHQIRSKKTLWELVGRNKDALRDFLKEHRGTILLRDIASEHKVVYKPIFKRYNGDPDLIEDNSNDVEHWYDYHLERYWNTPELKKEFYKKFGPVDLNQPIILAKPLRQHNRGDLVHLLPQFVVPVYN,soluble
15,MKQWREKSRQLAERGDLTPADWSNLELYCVNYSIYRKAVADLAARGFSIVNSQGGESRNPALSAKSDAERVMIKMASLLGFDPISRRKNPPETEEEDELDRLE,not soluble
16,MSLKITFTDKALDYLKRREILNKILILIADDGGGKYSIKGGGCAIGSHFSIIYVDKVDPDYPIKLENDQGINIYTSKYDTTMMGPNLVVDYANASLNLKSDEGLLDGGVDIGNGAELIKAQKNVKMTGVEWRCEGHHHHHH,soluble
17,MKKIGIIGGGQLGKMMTLEAKKMGFYVIVLDPTPRSPAGQVADEQIVAGFFDSERIEDLVKGSDVTTYDLEHIDVQTLKKLYNEGYKIHPSPYTLEIIQDKFVQKEFLKKNGIPVPEYKLVKDLESDVREFGFPVVQKARKGGYDGRGVFIIKNEKDLENAIKGETYLEEFVEIEKELAVMVARNEKGEIACYPVVEMYFDEDANICDTVIAPARIEEKYSKIAREIATSVVEALEGVGIFGIEMFLTKQGEILVNEIAPRPHNSGHYTIEACVTSQFEQHIRAIMNLPLGSTELLIPAVMVNLLGEEGYYGKPALIGLEEALAIEGLSLHFYGKKETRPYRKMGHFTVVDRDVERALEKALRAKKILKVVSEEGAMCQG,soluble
18,ATTYNAVVSKSSSDGKTFKTIADAIASAPAGSTPFVILIKNGVYNERLTITRNNLHLKGESRNGAVIAAATAAGTLKSDGSKWGTAGSSTITISAKDFSAQSLTIRNDFDFPANQAKSDSDSSKIKDTQAVALYVTKSGDRAYFKDVSLVGYQATLYVSGGRSFFSDCRISGTVDFIFGDGTALFNNCDLVSRYRADVKSGNVSGYLTAPSTNINQKYGLVITNSRVIRESDSVPAKSYGLGRPWHPTTTFSDGRYADPNAIGQTVFLNTSMDNHIYGWDKMSGKDKNGNTIWFNPEDSRFFEYKSYGAGATVSKDRRQLTDAQAAEYTQSKVLGDWTPTLP,soluble
19,GVTKKLKISRTATCKGCKGLGGNEGSAKECSDCRGRGIKVRVIRMGPMVQQMQSHCDSCNGEGSTFLEKDRCKKCNGKKQVKEDEI,not soluble
20,MITCGQVSSSLAPCIPYVRGGGAVPPACCNGIRNVNNLARTTPDRQAACNCLKQLSASVPGVNPNNAAALPGKCGVSIPYKISASTNCATVK,soluble
21,MGSDKIHHHHHHMSPMTIPSEMKALLLVGDGYTKTPSGSALEAMEPYLEQGRIAVPAPGPSQVLIKVNLASINPSDVAFIKGQYGQPRVKGRPAGFEGVGTIVAGGDEPYAKSLVGKRVAFATGLSNWGSWAEYAVAEAAACIPLLDTVRDEDGAAMIVNPLTAIAMFDIVKQEGEKAFVMTAGASQLCKLIIGLAKEEGFRPIVTVRRDEQIALLKDIGAAHVLNEKAPDFEATLREVMKAEQPRIFLDAVTGPLASAIFNAMPKRARWIIYGRLDPDATVIREPGQLIFQHKHIEGFWLSEWMRQFKERRGPAILEAQKRFSDGRWSTDVTAVVPLAEAIAWVPAELTKPNGKVFIRP,not soluble
22,KVGLIIISHGRIATETVNVVKELLGVKFPVAIDMPLDEKPINIYNKAVELSKIIDQGKGILFLVDIGSLTNIGQIVNKRTNISTKTIDRVDLLMALEATRKVSMGEEELDEIFFSLLKDRMGYNYELEKHIDKS,not soluble
23,MIVFYDSWCPMCTAVAEHTKKLDKKGKMKFVSFRNEDVVEKYELSQELQSKMEQRLYIFKNNKWYDGIQSIDVLAKAVPSYWFAVPFIKLSIVLGFGSKVYDYIANNRKLVPVGHCRGGVCEIPTKK,not soluble
